Article PMC9076165 (RSC Advances, 2019)
Where two headings read alike, the source gives them in different places. Where a SMILES comes first, the peptide text is derived from it.

Experiments:
[1] = Solubility of the peptide in assay buffer / stock solutions; type: physicochemical; settings: HK50 buffer (80 mM Hepes pH 7.6, 50 mM KCl), at concentrations equal to or higher than 10 μM
3h34P1 heptapeptide (L) [2] = target: T1, 3h34P1 heptapeptide (L) (synthetic (Ph.D.-7 phage display)); test: tryptophan fluorescence quenching
T1 chain: KNHDWGV

3h34P1 heptapeptide (L) [3] = target: T1, 3h34P1 heptapeptide (L); test: tryptophan fluorescence quenching
3h34P1 heptapeptide (L) [4] = target: T1, 3h34P1 heptapeptide (L); test: tryptophan fluorescence quenching
[5] = target: T2, RsmC (rRNA small subunit methyltransferase C) (Escherichia coli (ASKA collection), UniProt P39406 1-343); test: FRET
T2 sequence: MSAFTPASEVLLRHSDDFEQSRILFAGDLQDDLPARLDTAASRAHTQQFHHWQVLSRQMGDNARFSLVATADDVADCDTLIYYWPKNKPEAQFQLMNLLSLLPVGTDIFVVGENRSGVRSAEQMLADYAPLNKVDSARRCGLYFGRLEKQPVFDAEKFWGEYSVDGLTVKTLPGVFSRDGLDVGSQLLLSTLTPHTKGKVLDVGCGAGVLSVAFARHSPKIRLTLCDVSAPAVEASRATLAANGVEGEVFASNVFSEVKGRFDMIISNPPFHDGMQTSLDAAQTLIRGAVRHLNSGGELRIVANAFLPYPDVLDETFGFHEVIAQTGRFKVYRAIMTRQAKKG

3h34P1 heptapeptide (L) [6] = target: T1, 3h34P1 heptapeptide (L); test: tryptophan fluorescence quenching

Q: For CC(C)[C@H](NC(=O)CNC(=O)[C@H](Cc1c[nH]c2ccccc12)NC(=O)[C@H](CC(=O)O)NC(=O)[C@H](Cc1c[nH]cn1)NC(=O)[C@H](CC(N)=O)NC(=O)[C@@H](N)CCCCN)C(=O)O [P1] (H-KNHDWGV-OH), which “Solubility in the buffer used for FRET titrations” value [1] is on record?
A: low solubility

Q: Which Kd (3h34P1 heptapeptide (L) [2]) does the source give for CCGUCAAGUCAUCAUGGCCC (ssRNA) [3h34] here?
A: 18 ± 5 nM

Q: Does GCCCUGAAAAGGGC (ssRNA) [Control RNA 1] bind (3h34P1 heptapeptide (L) [3])?
A: no binding

Q: Does GGUGCUGCAUGGCUGUCGG (ssRNA) [5h34] bind (3h34P1 heptapeptide (L) [4])?
A: binds

Q: Does CCGUCAAGUCAUCAUGGCCC (ssRNA) [3h34-Cy3] bind [5]?
A: binds

Q: Does GAGGCCUUCGGGCCUC (ssRNA) [Control RNA 2] bind (3h34P1 heptapeptide (L) [6])?
A: no binding
